This is an account of results in paper doi:10.1101/804138.

One may read the stoichiometry N as a count of units in the complex or per binding partner.

In assay [1] the target is His6-GapR1-69 (truncated protein lacking the entire Helix 3) (Caulobacter crescentus). Description: SEC + cross-linking.
For assay [2], the target named is His6-GapR1-76 (truncated protein lacking only the hydrophobic patch of Helix 3) (Caulobacter crescentus). The experiment in a line: SEC + cross-linking.
For assay [3], the target named is His6-GapR1-89 (full-length WT GapR), purified (Caulobacter crescentus). Description: SEC + cross-linking.
In assay [4] the target is untagged GapR1-89 (Caulobacter crescentus).

Turning to “His6-GapR1-69 (truncated protein lacking the entire Helix 3) (domain or fragment)”, the stoichiometry N in assay [1] turned out to be 2.
Turning to “His6-GapR1-76 (truncated protein lacking only the hydrophobic patch of Helix 3) (domain or fragment)”, in assay [2], the stoichiometry N is 2.
Take “His6-GapR1-89 (full-length WT GapR), purified (natural protein)”: the stoichiometry N in assay [3] turned out to be 4.
untagged GapR1-89 (natural protein) registered a stoichiometry N in assay [4] of 4.
